According to patent publication US20050009743A1:

Tests used:
[1] = target: (CA-CTD)2, two copies of the HIV-1 CA C-terminal dimerization domain in tandem (plasmid WISP0070) (HIV-1 NL4-3); test: Superdex 75 gel filtration, 4 mg/ml loaded, 25 mM phosphate pH 7.2, 150 mM NaCl; self-association
[2] = target: (CA-CTD)2, two copies of the HIV-1 CA C-terminal dimerization domain in tandem (plasmid WISP0070) (HIV-1 NL4-3); test: equilibrium sedimentation (analytical ultracentrifugation), 22,000 rpm, 4 °C, 25 mM phosphate pH 7.0, 100 mM NaCl, 2 mM DTT; self-association
[3] = target: CA-NC(G94D) with the CA A42D mutation (plasmid WISP01125) (HIV-1 NL4-3); test: self-assembly of 9 µM mutant protein with 1 µM d(TG)50, overnight at 4 °C, 500 mM NaCl, 50 mM Tris-HCl pH 8.0; light scattering at 312 nm
[4] = target: CA-NC(G94D) with the CA W184A/M185A mutations (plasmid WISP01127) (HIV-1 NL4-3); test: as above
[5] = target: HIV-1 CA-NC (wild-type) (HIV-1 NL4-3); test: self-assembly of 9 µM protein with 1 µM d(TG)50, overnight at 4 °C, 500 mM NaCl, 50 mM Tris-HCl pH 8.0; light scattering at 312 nm (the filing puts the higher signal down to aggregation)
[6] = target: HIV-1 CA-NC(G94D) protein (HIV-1 NL4-3 Gag amino acids 133-433 with the point mutation G94D; plasmid WISP9868) (HIV-1 NL4-3); test: self-assembly of 9 µM CA-NC(G94D) with 0.03 mg/ml d(TG)25, overnight at 4 °C, 500 mM NaCl, 50 mM Tris-HCl pH 8.0; light scattering at 312 nm
[7] = target: HIV-1 CA-NC(G94D) protein (HIV-1 NL4-3 Gag amino acids 133-433 with the point mutation G94D; plasmid WISP9868) (HIV-1 NL4-3); test: self-assembly of 9 µM CA-NC(G94D) with 1 µM d(TG)50, 16 h at 4 °C, 500 mM NaCl, 50 mM Tris-HCl; light scattering at 312 nm
[8] = target: HIV-1 CA-NC(G94D) protein (HIV-1 NL4-3 Gag amino acids 133-433 with the point mutation G94D; plasmid WISP9868) (HIV-1 NL4-3); test: self-assembly of 9 µM CA-NC(G94D) with 0.03 mg/ml random 100-base oligonucleotide d(N)100, overnight at 4 °C, 500 mM NaCl, 50 mM Tris-HCl pH 8.0; light scattering at 312 nm (only slightly above background)
[9] = target: HIV-1 CA-NC(G94D) protein (HIV-1 NL4-3 Gag amino acids 133-433 with the point mutation G94D; plasmid WISP9868) (HIV-1 NL4-3); test: self-assembly of 9 µM protein with 1 µM d(TG)50, overnight at 4 °C, 500 mM NaCl, 50 mM Tris-HCl pH 8.0; light scattering at 312 nm
[10] = target: HIV-1 CA-NC(G94D) protein (HIV-1 NL4-3 Gag amino acids 133-433 with the point mutation G94D; plasmid WISP9868) (HIV-1 NL4-3); test: self-assembly of 9 µM CA-NC(G94D) with 0.03 mg/ml d(TG)50, overnight at 4 °C, 500 mM NaCl, 50 mM Tris-HCl pH 8.0; light scattering at 312 nm
[11] = target: HIV-1 CA-NC(G94D) protein (HIV-1 NL4-3 Gag amino acids 133-433 with the point mutation G94D; plasmid WISP9868) (HIV-1 NL4-3); test: self-assembly of 9 µM CA-NC(G94D) with 0.03 mg/ml d(TG)38, overnight at 4 °C, 500 mM NaCl, 50 mM Tris-HCl pH 8.0; light scattering at 312 nm

## (CA-CTD)2, two copies of the HIV-1 CA C-terminal dimerization domain in tandem (plasmid WISP0070)
[1]
  apparent mass (gel filtration, oligomerization state): 59 kDa
[2]
  Kd: < 1000 nM

## CA-NC(G94D) with the CA A42D mutation (plasmid WISP01125)
[3]
  Abs312 (light scattering of cylinder formation): 0.025

## CA-NC(G94D) with the CA W184A/M185A mutations (plasmid WISP01127)
[4]
  Abs312 (light scattering of cylinder formation): 0.008

## HIV-1 CA-NC (wild-type)
[5]
  Abs312 (light scattering of cylinder formation): 0.735

## HIV-1 CA-NC(G94D) protein (HIV-1 NL4-3 Gag amino acids 133-433 with the point mutation G94D; plasmid WISP9868)
[6]
  Abs312 (light scattering of cylinder formation): 0.2
[7]
  Abs312 (light scattering of cylinder formation): 0.3 to 0.4
[8]
  Abs312 (light scattering of cylinder formation): 0.035
[9]
  Abs312 (light scattering of cylinder formation): 0.292
[10]
  Abs312 (light scattering of cylinder formation): 0.292
[11]
  Abs312 (light scattering of cylinder formation): 0.279
